Experimental data as given in the supplement of paper PMC10065799, “High-throughput profiling of sequence recognition by tyrosine kinases and SH2 domains using bacterial peptide display” (eLife, 2023).

Key:
c-Src = assay: phosphorylation enrichment, bacterial display (enrichment ratio); higher = better substrate or ligand; peptides without Tyr show the background
Fyn = Fyn (UniProt P06241); assay: as above
EPHB1 = EPHB1 (UniProt P54762); assay: as above
MERTK = MERTK (UniProt Q12866); assay: as above
Chain of MERTK (Q12866 whole entry, looked up): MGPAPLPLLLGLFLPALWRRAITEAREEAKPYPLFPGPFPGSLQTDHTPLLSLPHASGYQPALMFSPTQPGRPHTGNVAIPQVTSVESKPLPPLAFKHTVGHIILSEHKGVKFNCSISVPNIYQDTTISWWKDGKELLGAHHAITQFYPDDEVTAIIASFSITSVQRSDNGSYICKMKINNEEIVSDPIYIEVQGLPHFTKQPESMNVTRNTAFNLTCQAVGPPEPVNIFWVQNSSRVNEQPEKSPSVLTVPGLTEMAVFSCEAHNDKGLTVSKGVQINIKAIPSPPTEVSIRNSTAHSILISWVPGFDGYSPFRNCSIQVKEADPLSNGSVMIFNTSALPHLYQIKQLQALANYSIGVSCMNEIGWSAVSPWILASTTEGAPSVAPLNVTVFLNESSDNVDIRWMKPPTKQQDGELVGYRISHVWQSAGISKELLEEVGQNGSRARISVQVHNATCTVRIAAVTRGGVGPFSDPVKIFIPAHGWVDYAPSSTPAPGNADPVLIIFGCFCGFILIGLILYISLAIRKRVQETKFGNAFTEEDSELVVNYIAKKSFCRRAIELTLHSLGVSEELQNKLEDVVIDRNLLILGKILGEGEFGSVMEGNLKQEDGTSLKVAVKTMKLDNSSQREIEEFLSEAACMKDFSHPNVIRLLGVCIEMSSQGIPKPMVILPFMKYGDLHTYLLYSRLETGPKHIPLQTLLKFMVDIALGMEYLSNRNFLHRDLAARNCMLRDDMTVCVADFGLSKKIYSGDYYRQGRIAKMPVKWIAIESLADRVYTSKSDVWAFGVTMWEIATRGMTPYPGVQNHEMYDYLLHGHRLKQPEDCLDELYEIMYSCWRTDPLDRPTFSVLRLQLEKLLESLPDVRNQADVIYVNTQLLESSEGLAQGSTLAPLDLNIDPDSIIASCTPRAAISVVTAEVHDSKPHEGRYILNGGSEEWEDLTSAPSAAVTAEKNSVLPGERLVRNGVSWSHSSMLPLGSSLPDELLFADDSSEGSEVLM

Jak2 = Jak2 (UniProt O60674); assay: as above
Chain of Jak2 (O60674 whole entry, looked up): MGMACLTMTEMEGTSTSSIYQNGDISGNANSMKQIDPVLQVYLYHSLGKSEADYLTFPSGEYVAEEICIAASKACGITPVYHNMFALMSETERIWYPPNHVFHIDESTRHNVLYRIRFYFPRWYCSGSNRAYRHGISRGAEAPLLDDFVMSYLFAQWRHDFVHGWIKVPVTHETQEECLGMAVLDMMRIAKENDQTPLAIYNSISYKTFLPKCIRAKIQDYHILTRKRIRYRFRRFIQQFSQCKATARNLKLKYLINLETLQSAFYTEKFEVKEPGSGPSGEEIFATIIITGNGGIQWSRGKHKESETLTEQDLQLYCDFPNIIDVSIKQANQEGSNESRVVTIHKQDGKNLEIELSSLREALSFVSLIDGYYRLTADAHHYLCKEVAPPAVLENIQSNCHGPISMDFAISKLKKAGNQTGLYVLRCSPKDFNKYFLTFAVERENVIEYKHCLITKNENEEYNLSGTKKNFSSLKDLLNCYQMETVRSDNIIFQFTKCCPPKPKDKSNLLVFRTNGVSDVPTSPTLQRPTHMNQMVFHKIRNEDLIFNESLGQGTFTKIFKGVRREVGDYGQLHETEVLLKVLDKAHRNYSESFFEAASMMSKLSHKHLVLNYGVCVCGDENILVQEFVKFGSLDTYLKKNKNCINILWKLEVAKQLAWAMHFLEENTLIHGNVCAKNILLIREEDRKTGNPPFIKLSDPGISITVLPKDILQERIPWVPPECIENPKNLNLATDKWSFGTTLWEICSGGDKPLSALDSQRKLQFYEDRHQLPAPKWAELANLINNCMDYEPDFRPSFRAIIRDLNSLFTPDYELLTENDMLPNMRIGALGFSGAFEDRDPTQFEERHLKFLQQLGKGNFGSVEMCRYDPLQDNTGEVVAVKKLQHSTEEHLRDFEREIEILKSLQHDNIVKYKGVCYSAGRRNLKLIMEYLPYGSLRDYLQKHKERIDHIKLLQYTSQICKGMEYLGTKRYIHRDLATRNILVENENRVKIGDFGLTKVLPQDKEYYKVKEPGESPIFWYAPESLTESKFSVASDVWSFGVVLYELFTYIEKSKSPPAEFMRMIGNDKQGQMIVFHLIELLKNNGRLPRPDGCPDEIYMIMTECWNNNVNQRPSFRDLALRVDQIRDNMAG

EPHB2 = EPHB2 (UniProt P29323); assay: as above
AncSZ = assay: as above
Hck = Hck (UniProt P08631); assay: as above
Fer (mouse) = assay: as above
Fes = Fes (UniProt P07332); assay: as above
c-Abl (mouse) = assay: as above
FGFR3 = FGFR3 (UniProt P22607); assay: as above
Chain of FGFR3 (P22607 whole entry, looked up): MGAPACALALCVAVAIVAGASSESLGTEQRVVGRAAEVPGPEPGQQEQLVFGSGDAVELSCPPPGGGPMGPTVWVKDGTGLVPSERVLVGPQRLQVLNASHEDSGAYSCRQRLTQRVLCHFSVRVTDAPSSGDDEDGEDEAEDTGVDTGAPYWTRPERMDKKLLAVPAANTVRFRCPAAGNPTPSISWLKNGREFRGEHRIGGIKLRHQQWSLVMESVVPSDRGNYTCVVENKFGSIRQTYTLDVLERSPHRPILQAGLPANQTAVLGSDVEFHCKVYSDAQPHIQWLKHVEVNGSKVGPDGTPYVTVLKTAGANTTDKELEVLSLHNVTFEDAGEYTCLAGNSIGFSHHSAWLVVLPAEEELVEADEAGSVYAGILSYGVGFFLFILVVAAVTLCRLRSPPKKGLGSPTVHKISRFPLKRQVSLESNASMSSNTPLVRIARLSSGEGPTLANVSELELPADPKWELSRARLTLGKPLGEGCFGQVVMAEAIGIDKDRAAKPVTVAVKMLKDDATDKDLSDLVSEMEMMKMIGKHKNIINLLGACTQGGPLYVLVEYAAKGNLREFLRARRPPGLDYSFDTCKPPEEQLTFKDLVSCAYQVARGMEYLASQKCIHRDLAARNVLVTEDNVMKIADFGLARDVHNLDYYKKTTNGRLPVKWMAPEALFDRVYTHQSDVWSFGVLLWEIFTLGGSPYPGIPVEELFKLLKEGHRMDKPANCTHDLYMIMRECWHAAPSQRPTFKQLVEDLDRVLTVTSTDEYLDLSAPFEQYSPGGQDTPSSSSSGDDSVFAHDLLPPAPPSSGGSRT

FGFR1 = FGFR1 (UniProt P11362); assay: as above
Chain of FGFR1 (P11362 whole entry, looked up): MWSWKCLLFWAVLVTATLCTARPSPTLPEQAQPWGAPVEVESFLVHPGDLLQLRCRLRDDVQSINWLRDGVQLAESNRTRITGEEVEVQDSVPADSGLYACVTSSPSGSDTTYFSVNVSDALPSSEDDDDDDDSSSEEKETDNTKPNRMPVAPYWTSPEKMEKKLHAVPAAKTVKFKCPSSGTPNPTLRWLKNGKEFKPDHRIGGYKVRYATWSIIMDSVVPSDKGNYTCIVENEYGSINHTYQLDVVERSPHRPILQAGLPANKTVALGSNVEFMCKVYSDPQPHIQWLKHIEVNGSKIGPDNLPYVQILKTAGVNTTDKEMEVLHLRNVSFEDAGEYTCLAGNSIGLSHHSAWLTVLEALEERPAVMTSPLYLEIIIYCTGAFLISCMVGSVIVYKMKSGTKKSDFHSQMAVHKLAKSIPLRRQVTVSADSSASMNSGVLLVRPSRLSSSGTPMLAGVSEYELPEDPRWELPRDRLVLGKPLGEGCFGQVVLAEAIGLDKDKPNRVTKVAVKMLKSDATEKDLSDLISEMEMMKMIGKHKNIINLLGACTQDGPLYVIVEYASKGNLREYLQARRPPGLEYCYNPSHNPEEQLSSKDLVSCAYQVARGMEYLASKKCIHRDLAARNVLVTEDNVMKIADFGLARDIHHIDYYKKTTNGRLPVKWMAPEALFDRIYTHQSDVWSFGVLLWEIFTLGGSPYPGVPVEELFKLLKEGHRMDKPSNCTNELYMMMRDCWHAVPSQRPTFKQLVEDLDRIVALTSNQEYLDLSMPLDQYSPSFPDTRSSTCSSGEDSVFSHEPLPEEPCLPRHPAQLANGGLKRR

c-Src SH2 = assay: SH2 binding enrichment of the phosphorylated peptide, bacterial display (enrichment ratio); higher = better substrate or ligand; peptides without Tyr show the background
SHP2-C SH2 = assay: as above
Grb2 SH2 = Grb2 SH2 (UniProt P62993); assay: as above
Chain of Grb2 SH2 (P62993 whole entry, looked up, the tested form may be a part): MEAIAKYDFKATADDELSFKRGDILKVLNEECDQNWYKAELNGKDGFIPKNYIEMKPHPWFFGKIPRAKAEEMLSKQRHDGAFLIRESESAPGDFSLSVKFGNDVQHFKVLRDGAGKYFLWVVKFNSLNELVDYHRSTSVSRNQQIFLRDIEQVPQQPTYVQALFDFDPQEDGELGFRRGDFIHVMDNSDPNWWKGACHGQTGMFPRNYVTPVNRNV
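Throughout, for SH2 binding enrichment of the phosphorylated peptide, bacterial display: peptide library displayed on the E. coli surface as eCPX fusions, selected cells deep-sequenced, score is each peptide's frequency after selection divided by its frequency in the input.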
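Throughout, for phosphorylation enrichment, bacterial display: 11-residue human phosphosite peptides and single-mutation variants displayed on the E. coli surface, counted by deep sequencing, each peptide's frequency after selection divided by its frequency in the unselected input library; frequency after pTyr selection over input frequency; kinase dosed for 20-30% of maximal phosphorylation in three min.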

Chain of EPHB1 (P54762 whole entry, looked up): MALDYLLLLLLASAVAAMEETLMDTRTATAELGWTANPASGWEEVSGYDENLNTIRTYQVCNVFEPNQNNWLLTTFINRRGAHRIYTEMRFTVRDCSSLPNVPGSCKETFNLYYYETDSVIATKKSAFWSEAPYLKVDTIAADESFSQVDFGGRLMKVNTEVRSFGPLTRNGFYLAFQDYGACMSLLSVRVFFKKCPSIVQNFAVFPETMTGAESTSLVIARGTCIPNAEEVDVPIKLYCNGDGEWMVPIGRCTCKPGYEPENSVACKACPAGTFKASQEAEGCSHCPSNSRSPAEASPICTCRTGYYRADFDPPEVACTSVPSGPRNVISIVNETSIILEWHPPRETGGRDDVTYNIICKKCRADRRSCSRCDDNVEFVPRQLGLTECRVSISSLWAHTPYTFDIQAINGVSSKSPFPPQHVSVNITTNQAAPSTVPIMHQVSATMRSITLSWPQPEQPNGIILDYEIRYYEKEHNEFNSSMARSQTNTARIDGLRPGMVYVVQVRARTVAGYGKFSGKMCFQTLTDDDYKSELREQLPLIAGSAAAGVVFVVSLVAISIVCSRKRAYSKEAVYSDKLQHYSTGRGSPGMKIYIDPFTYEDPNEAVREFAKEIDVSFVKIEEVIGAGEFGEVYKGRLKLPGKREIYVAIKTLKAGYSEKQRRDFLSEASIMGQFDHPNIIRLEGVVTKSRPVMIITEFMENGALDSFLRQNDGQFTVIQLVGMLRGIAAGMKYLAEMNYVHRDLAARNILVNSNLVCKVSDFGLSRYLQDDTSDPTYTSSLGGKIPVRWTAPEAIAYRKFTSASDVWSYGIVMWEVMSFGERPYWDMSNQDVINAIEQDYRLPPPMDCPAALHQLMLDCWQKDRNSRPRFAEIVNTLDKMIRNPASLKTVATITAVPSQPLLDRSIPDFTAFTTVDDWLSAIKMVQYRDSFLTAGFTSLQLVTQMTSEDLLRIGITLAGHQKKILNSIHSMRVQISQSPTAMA

## VEDPEYAVTQL [STOML2_Y124]
c-Src
  phosphorylation enrichment: 0.549
Fyn
  phosphorylation enrichment: 0.398
EPHB1
  phosphorylation enrichment: 0.466
MERTK
  phosphorylation enrichment: 0.409
Jak2
  phosphorylation enrichment: 0.893
EPHB2
  phosphorylation enrichment: 0.531
AncSZ
  phosphorylation enrichment: 1.24
Hck
  phosphorylation enrichment: 0.463
Fer (mouse)
  phosphorylation enrichment: 0.709
Fes
  phosphorylation enrichment: 0.997
c-Abl (mouse)
  phosphorylation enrichment: 0.597
FGFR3
  phosphorylation enrichment: 0.516
FGFR1
  phosphorylation enrichment: 0.477
c-Src SH2
  SH2 binding enrichment: 0.483
SHP2-C SH2
  SH2 binding enrichment: 0.835
Grb2 SH2
  SH2 binding enrichment: 1.11

## VEQIHYIGQNE [HMOX2_Y140_R137Q]
c-Src
  phosphorylation enrichment: 0.452
Fyn
  phosphorylation enrichment: 0.462
EPHB1
  phosphorylation enrichment: 0.445
MERTK
  phosphorylation enrichment: 0.408
Jak2
  phosphorylation enrichment: 0.547
EPHB2
  phosphorylation enrichment: 0.396
AncSZ
  phosphorylation enrichment: 0.665
Hck
  phosphorylation enrichment: 0.461
Fer (mouse)
  phosphorylation enrichment: 0.424
Fes
  phosphorylation enrichment: 0.663
c-Abl (mouse)
  phosphorylation enrichment: 0.423
FGFR3
  phosphorylation enrichment: 0.612
FGFR1
  phosphorylation enrichment: 0.483
c-Src SH2
  SH2 binding enrichment: 0.465
SHP2-C SH2
  SH2 binding enrichment: 0.582
Grb2 SH2
  SH2 binding enrichment: 0.834

## VERRVYAEDPY [PCCA_Y401_C398R]
c-Src
  phosphorylation enrichment: 0.681
Fyn
  phosphorylation enrichment: 0.764
EPHB1
  phosphorylation enrichment: 0.459
MERTK
  phosphorylation enrichment: 0.46
Jak2
  phosphorylation enrichment: 0.663
EPHB2
  phosphorylation enrichment: 0.507
AncSZ
  phosphorylation enrichment: 0.826
Hck
  phosphorylation enrichment: 0.566
Fer (mouse)
  phosphorylation enrichment: 0.424
Fes
  phosphorylation enrichment: 0.962
c-Abl (mouse)
  phosphorylation enrichment: 0.566
FGFR3
  phosphorylation enrichment: 0.664
FGFR1
  phosphorylation enrichment: 0.631
c-Src SH2
  SH2 binding enrichment: 0.55
SHP2-C SH2
  SH2 binding enrichment: 0.506
Grb2 SH2
  SH2 binding enrichment: 0.89

## VFLGAYDRFLP [SLC22A5_Y486_YF]
c-Src
  phosphorylation enrichment: 4.15
Fyn
  phosphorylation enrichment: 2.96
EPHB1
  phosphorylation enrichment: 1.01
MERTK
  phosphorylation enrichment: 5.13
Jak2
  phosphorylation enrichment: 0.976
EPHB2
  phosphorylation enrichment: 1.58
AncSZ
  phosphorylation enrichment: 1.19
Hck
  phosphorylation enrichment: 4
Fer (mouse)
  phosphorylation enrichment: 1.18
Fes
  phosphorylation enrichment: 1.02
c-Abl (mouse)
  phosphorylation enrichment: 0.782
FGFR3
  phosphorylation enrichment: 0.656
FGFR1
  phosphorylation enrichment: 0.704
c-Src SH2
  SH2 binding enrichment: 1.06
SHP2-C SH2
  SH2 binding enrichment: 0.852
Grb2 SH2
  SH2 binding enrichment: 0.908

## VGIMLYGVDSR [PKD1_Y3143]
c-Src
  phosphorylation enrichment: 0.435
Fyn
  phosphorylation enrichment: 0.572
EPHB1
  phosphorylation enrichment: 0.575
MERTK
  phosphorylation enrichment: 0.383
Jak2
  phosphorylation enrichment: 1.05
EPHB2
  phosphorylation enrichment: 0.626
AncSZ
  phosphorylation enrichment: 1.12
Hck
  phosphorylation enrichment: 0.61
Fer (mouse)
  phosphorylation enrichment: 0.634
Fes
  phosphorylation enrichment: 1.19
c-Abl (mouse)
  phosphorylation enrichment: 0.77
FGFR3
  phosphorylation enrichment: 0.792
FGFR1
  phosphorylation enrichment: 0.592
c-Src SH2
  SH2 binding enrichment: 0.489
SHP2-C SH2
  SH2 binding enrichment: 0.63
Grb2 SH2
  SH2 binding enrichment: 0.888

## VHFARYLAMNK [HARS1_Y138_P134H]
c-Src
  phosphorylation enrichment: 0.553
Fyn
  phosphorylation enrichment: 0.557
EPHB1
  phosphorylation enrichment: 0.504
MERTK
  phosphorylation enrichment: 0.509
Jak2
  phosphorylation enrichment: 0.661
EPHB2
  phosphorylation enrichment: 0.555
AncSZ
  phosphorylation enrichment: 0.864
Hck
  phosphorylation enrichment: 0.506
Fer (mouse)
  phosphorylation enrichment: 0.44
Fes
  phosphorylation enrichment: 0.902
c-Abl (mouse)
  phosphorylation enrichment: 0.565
FGFR3
  phosphorylation enrichment: 0.771
FGFR1
  phosphorylation enrichment: 0.511
c-Src SH2
  SH2 binding enrichment: 0.403
SHP2-C SH2
  SH2 binding enrichment: 0.72
Grb2 SH2
  SH2 binding enrichment: 0.931

## VIKDKYPQARF [APTX_Y209_K211Q_YF]
c-Src
  phosphorylation enrichment: 0.44
Fyn
  phosphorylation enrichment: 0.35
EPHB1
  phosphorylation enrichment: 0.436
MERTK
  phosphorylation enrichment: 0.406
Jak2
  phosphorylation enrichment: 0.553
EPHB2
  phosphorylation enrichment: 0.326
AncSZ
  phosphorylation enrichment: 0.453
Hck
  phosphorylation enrichment: 0.308
Fer (mouse)
  phosphorylation enrichment: 0.328
Fes
  phosphorylation enrichment: 0.579
c-Abl (mouse)
  phosphorylation enrichment: 0.47
FGFR3
  phosphorylation enrichment: 0.469
FGFR1
  phosphorylation enrichment: 0.367
c-Src SH2
  SH2 binding enrichment: 0.562
SHP2-C SH2
  SH2 binding enrichment: 1.02
Grb2 SH2
  SH2 binding enrichment: 1.06

## VKPENYRRLDV [VHL_Y175_I180V]
c-Src
  phosphorylation enrichment: 0.372
Fyn
  phosphorylation enrichment: 0.461
EPHB1
  phosphorylation enrichment: 0.561
MERTK
  phosphorylation enrichment: 0.465
Jak2
  phosphorylation enrichment: 0.463
EPHB2
  phosphorylation enrichment: 0.386
AncSZ
  phosphorylation enrichment: 0.532
Hck
  phosphorylation enrichment: 0.387
Fer (mouse)
  phosphorylation enrichment: 0.334
Fes
  phosphorylation enrichment: 0.593
c-Abl (mouse)
  phosphorylation enrichment: 0.814
FGFR3
  phosphorylation enrichment: 0.506
FGFR1
  phosphorylation enrichment: 0.429
c-Src SH2
  SH2 binding enrichment: 0.465
SHP2-C SH2
  SH2 binding enrichment: 0.635
Grb2 SH2
  SH2 binding enrichment: 0.778

## VLALWYYYLTH [ZDHHC23_Y127]
c-Src
  phosphorylation enrichment: 1.24
Fyn
  phosphorylation enrichment: 0.646
EPHB1
  phosphorylation enrichment: 0.81
MERTK
  phosphorylation enrichment: 2.99
Jak2
  phosphorylation enrichment: 2.57
EPHB2
  phosphorylation enrichment: 0.74
AncSZ
  phosphorylation enrichment: 1.45
Hck
  phosphorylation enrichment: 0.783
Fer (mouse)
  phosphorylation enrichment: 0.724
Fes
  phosphorylation enrichment: 1.64
c-Abl (mouse)
  phosphorylation enrichment: 0.964
FGFR3
  phosphorylation enrichment: 5.65
FGFR1
  phosphorylation enrichment: 6.87
c-Src SH2
  SH2 binding enrichment: 1.5
SHP2-C SH2
  SH2 binding enrichment: 1.62
Grb2 SH2
  SH2 binding enrichment: 2.15

## VMIYAYLLHRG [PTEN_Y138_C136Y]
c-Src
  phosphorylation enrichment: 0.46
Fyn
  phosphorylation enrichment: 0.443
EPHB1
  phosphorylation enrichment: 0.479
MERTK
  phosphorylation enrichment: 0.591
Jak2
  phosphorylation enrichment: 0.733
EPHB2
  phosphorylation enrichment: 0.455
AncSZ
  phosphorylation enrichment: 0.821
Hck
  phosphorylation enrichment: 0.697
Fer (mouse)
  phosphorylation enrichment: 0.371
Fes
  phosphorylation enrichment: 0.856
c-Abl (mouse)
  phosphorylation enrichment: 0.748
FGFR3
  phosphorylation enrichment: 0.703
FGFR1
  phosphorylation enrichment: 0.351
c-Src SH2
  SH2 binding enrichment: 0.806
SHP2-C SH2
  SH2 binding enrichment: 0.741
Grb2 SH2
  SH2 binding enrichment: 1.34

## VNNAVYGIDAM [EIF3J_Y143]
c-Src
  phosphorylation enrichment: 1
Fyn
  phosphorylation enrichment: 1.09
EPHB1
  phosphorylation enrichment: 0.417
MERTK
  phosphorylation enrichment: 0.426
Jak2
  phosphorylation enrichment: 0.764
EPHB2
  phosphorylation enrichment: 0.437
AncSZ
  phosphorylation enrichment: 0.86
Hck
  phosphorylation enrichment: 0.829
Fer (mouse)
  phosphorylation enrichment: 0.486
Fes
  phosphorylation enrichment: 0.88
c-Abl (mouse)
  phosphorylation enrichment: 0.509
FGFR3
  phosphorylation enrichment: 0.502
FGFR1
  phosphorylation enrichment: 0.506
c-Src SH2
  SH2 binding enrichment: 0.507
SHP2-C SH2
  SH2 binding enrichment: 0.763
Grb2 SH2
  SH2 binding enrichment: 0.771

## VPEANYTSDEE [STK33_Y439_D436E]
c-Src
  phosphorylation enrichment: 0.614
Fyn
  phosphorylation enrichment: 0.665
EPHB1
  phosphorylation enrichment: 0.897
MERTK
  phosphorylation enrichment: 0.699
Jak2
  phosphorylation enrichment: 1.99
EPHB2
  phosphorylation enrichment: 0.691
AncSZ
  phosphorylation enrichment: 1.42
Hck
  phosphorylation enrichment: 0.576
Fer (mouse)
  phosphorylation enrichment: 0.721
Fes
  phosphorylation enrichment: 1.52
c-Abl (mouse)
  phosphorylation enrichment: 1.17
FGFR3
  phosphorylation enrichment: 0.947
FGFR1
  phosphorylation enrichment: 0.607
c-Src SH2
  SH2 binding enrichment: 0.46
SHP2-C SH2
  SH2 binding enrichment: 0.579
Grb2 SH2
  SH2 binding enrichment: 0.831

## VPLATYMQIFK [RPL21_Y30_R32Q_YF]
c-Src
  phosphorylation enrichment: 1.54
Fyn
  phosphorylation enrichment: 0.887
EPHB1
  phosphorylation enrichment: 1.83
MERTK
  phosphorylation enrichment: 0.613
Jak2
  phosphorylation enrichment: 0.836
EPHB2
  phosphorylation enrichment: 0.648
AncSZ
  phosphorylation enrichment: 0.745
Hck
  phosphorylation enrichment: 1.8
Fer (mouse)
  phosphorylation enrichment: 0.308
Fes
  phosphorylation enrichment: 0.654
c-Abl (mouse)
  phosphorylation enrichment: 0.361
FGFR3
  phosphorylation enrichment: 0.54
FGFR1
  phosphorylation enrichment: 0.471
c-Src SH2
  SH2 binding enrichment: 0.866
SHP2-C SH2
  SH2 binding enrichment: 0.682
Grb2 SH2
  SH2 binding enrichment: 0.859

## VRRVGYVSGWG [HP_Y280_G276R]
c-Src
  phosphorylation enrichment: 0.434
Fyn
  phosphorylation enrichment: 0.388
EPHB1
  phosphorylation enrichment: 0.422
MERTK
  phosphorylation enrichment: 0.387
Jak2
  phosphorylation enrichment: 0.514
EPHB2
  phosphorylation enrichment: 0.423
AncSZ
  phosphorylation enrichment: 0.613
Hck
  phosphorylation enrichment: 0.438
Fer (mouse)
  phosphorylation enrichment: 0.469
Fes
  phosphorylation enrichment: 0.61
c-Abl (mouse)
  phosphorylation enrichment: 0.642
FGFR3
  phosphorylation enrichment: 0.391
FGFR1
  phosphorylation enrichment: 0.373
c-Src SH2
  SH2 binding enrichment: 0.494
SHP2-C SH2
  SH2 binding enrichment: 0.579
Grb2 SH2
  SH2 binding enrichment: 0.95

## VRVQLYDPDYM [CYP4A22_Y100]
c-Src
  phosphorylation enrichment: 0.615
Fyn
  phosphorylation enrichment: 0.493
EPHB1
  phosphorylation enrichment: 1.27
MERTK
  phosphorylation enrichment: 0.887
Jak2
  phosphorylation enrichment: 1.15
EPHB2
  phosphorylation enrichment: 0.776
AncSZ
  phosphorylation enrichment: 1.56
Hck
  phosphorylation enrichment: 0.807
Fer (mouse)
  phosphorylation enrichment: 0.599
Fes
  phosphorylation enrichment: 1.27
c-Abl (mouse)
  phosphorylation enrichment: 0.79
FGFR3
  phosphorylation enrichment: 0.741
FGFR1
  phosphorylation enrichment: 0.538
c-Src SH2
  SH2 binding enrichment: 0.545
SHP2-C SH2
  SH2 binding enrichment: 1.45
Grb2 SH2
  SH2 binding enrichment: 1.08

## VTVLDYDKIGK [SYT1_Y365]
c-Src
  phosphorylation enrichment: 0.391
Fyn
  phosphorylation enrichment: 0.343
EPHB1
  phosphorylation enrichment: 0.45
MERTK
  phosphorylation enrichment: 0.48
Jak2
  phosphorylation enrichment: 0.501
EPHB2
  phosphorylation enrichment: 0.541
AncSZ
  phosphorylation enrichment: 0.621
Hck
  phosphorylation enrichment: 0.648
Fer (mouse)
  phosphorylation enrichment: 0.404
Fes
  phosphorylation enrichment: 0.828
c-Abl (mouse)
  phosphorylation enrichment: 0.482
FGFR3
  phosphorylation enrichment: 0.515
FGFR1
  phosphorylation enrichment: 0.505
c-Src SH2
  SH2 binding enrichment: 2.88
SHP2-C SH2
  SH2 binding enrichment: 0.777
Grb2 SH2
  SH2 binding enrichment: 0.774
